Values of other authors, collected in PMC5904127.

Target: apocalmodulin (UniProt P0DP23)

In the case of “neuromodulin IQ domain (from UniProt P17677)”, the Kd is listed as 2 µM.
